Reference: patent US20100209439A1 (FORERUNNER PHARMA RESEARCH, published 2010)

Target: T1, Recombinant human Prominin-1 with C-terminal FLAG-tag, forcedly expressed on DG44 cells (human, UniProt O43490 20-865)
T1 construct: whole, on cells; Expressed in DG44 cells; also called Prominin-1 recombinant protein; cells forcedly expressing Prominin-1; not shown: FLAG-tag artificially added to the C terminus
T1 sequence (looked up): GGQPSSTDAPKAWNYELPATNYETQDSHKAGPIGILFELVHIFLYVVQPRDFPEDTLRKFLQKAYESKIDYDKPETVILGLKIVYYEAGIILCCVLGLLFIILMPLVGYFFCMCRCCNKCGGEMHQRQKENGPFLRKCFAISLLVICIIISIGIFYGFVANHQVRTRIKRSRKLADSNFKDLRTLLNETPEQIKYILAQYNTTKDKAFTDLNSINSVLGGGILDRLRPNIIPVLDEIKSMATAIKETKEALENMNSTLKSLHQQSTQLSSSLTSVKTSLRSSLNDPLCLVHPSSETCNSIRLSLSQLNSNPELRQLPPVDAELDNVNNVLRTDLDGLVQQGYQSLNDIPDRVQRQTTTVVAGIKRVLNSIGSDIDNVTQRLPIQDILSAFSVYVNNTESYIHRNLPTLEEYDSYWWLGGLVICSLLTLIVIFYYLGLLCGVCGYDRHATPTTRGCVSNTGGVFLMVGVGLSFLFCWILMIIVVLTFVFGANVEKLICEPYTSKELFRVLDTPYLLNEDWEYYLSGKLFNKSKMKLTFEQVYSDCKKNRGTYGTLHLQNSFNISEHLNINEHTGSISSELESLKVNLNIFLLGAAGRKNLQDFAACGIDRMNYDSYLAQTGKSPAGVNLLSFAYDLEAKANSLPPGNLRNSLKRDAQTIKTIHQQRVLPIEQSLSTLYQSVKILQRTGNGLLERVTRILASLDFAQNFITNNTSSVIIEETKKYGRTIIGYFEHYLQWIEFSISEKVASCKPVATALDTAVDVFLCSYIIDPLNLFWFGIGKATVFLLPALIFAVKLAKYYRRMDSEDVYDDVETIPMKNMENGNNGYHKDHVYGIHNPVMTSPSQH
Test: flow cytometry on DG44 cells forcedly expressing FLAG-tagged human Prominin-1

- binding result: binds
B1: AC133.1 antibody (mouse IgG1, produced by hybridoma HB-12346) (antibody, V domains shown)
VH: QVQLQQSGAELVRPGASVKLSCKASGYTFSDFEMHWVKQTPVHGLEWIGDIDPGTGDTAYNLKFKGKATLTTDKSSSTAYMELRSLTSEDSAVYYCTLGAFVYWGQGTLVTVSA
VL: DVVVTQTPLSLPVSFGDQVSISCRSSQSLANSYGNTYLSWYLHKPGQSPQLLIYGISNRFSGVPDRFSGSGSGTDFTLKISTIKPEDLGMYYCLQGTHQPYTFGGGTKLEIKR
notes: The rest is mouse IgG1 heavy chain and Ig kappa light chain; Purified from hybridoma supernatant on Protein G; also called AC133 antibody; A133.1 antibody
